In the RNAGym collection of RNA variant scans (doi:10.7554/elife.90254):

B1: LINE1-full (parent)
chain: UACGUAGGUGGUUUUCCCCUGAUAGUGCUAAGGGGGCCUGGAAGUUUGGACUGGGCAGAGCUCAACACAGCGUGGCAAAGUGGCUGUGGCUAGACUGCCUCUCUGGAUUCCUCGUCACUCAGCAGGGCAUCUCUGAGAGAAAUGCC

Variants of: B1
Assay: self-cleavage, relative activity (ratio to wild type); higher = more cleavage; in vitro, sequencing; the parent is a self-cleaving ribozyme

Variant | self-cleavage
A22G G126A | 1.74
A43U A64U | 0.43
A92U A142G | 0.66
A121G A141G | 1.65
A6G A64U | 0.87
G4A A64U | 0.72
U23C U47A | 1.9
U5A G34U | 0.88
G74U A117U | 1.79
U14C G83A | 1.07
C37G A117G | 1.66
U100C C146A | 1.75
A6U A69G | 0.89
A67U A141G | 0.13
A94U U104A | 0.19
U45G U47A | 1.19
U47C A117C | 1.96
A42G U81A | 2.11
U39G U115A | 1.31
A30C U87C | 0.64
G72A A138G | 1.51
U87C U115A | 0.17
U102C U143A | 1.36
U91C A140G | 0.75

Variant | self-cleavage
A2G G137A | 0.61
U100C A136U | 1.73
A78C U96A | 0.14
U91C U115C | 0.83
U73G A141G | 1.81
U12A A141G | 1.19
U20A A124G | 0.76
G97A U100A | 0.1
A22U U46C | 1.34
G8A G97A | 0.41
U100C G122C | 2.12
A43G C99U | 1.1
A65U C76U | 0.22
U15A U73A | 1.02
U29C U115C | 1.75
C123U | 1.16
A69U G89U | 0.02
A50G G93U | 0.05
C131A A142G | 0.98
U29C U134C | 1.37
G82A A138G | 2.26
G33C A136G | 0
U52C G88A | 0.04
U20A U23C | 0.83

Variant | self-cleavage
U13C A121G | 1.52
U96C A107G | 0.14
A57G U81C | 0.89
U45A U115C | 1.51
G105C | 1.59
U47A U130C | 1.51
U130C U143A | 1.51
U96A U104C | 0.07
G58A A64G | 0.03
G10A U81A | 2.3
U20A U62A | 0.07
C101A C113A | 1.41
U108A A136U | 1.24
U52C A77G | 2.8
U62C A107G | 0.06
U14A A141G | 1
A64U U87A | 0.06
A67G U104C | 0.96
U47C C84G | 0.11
A94U A136U | 0.29
C16U C131U | 1.8
C99A A136G | 0.99
A30G U73G | 0.81
U73C U100A | 1.81

Variant | self-cleavage
U12G A141G | 1.22
G105U U143A | 1.34
U96C A141G | 0.18
G93A A138G | 0.06
A69G U112C | 0.52
U14C A77C | 2.68
A57U U104A | 0.06
U14A U104C | 1.69
A65U U100C | 0.16
C19A A57G | 1.11
A79G G83A | 1.03
U13C C145A | 1.6
C95U A107G | 0.21
A59G A92U | 0.1
U115C G122A | 1.77
A50G G83A | 0.28
C90U U100C | 0
U47A G88A | 0.01
U23G U102C | 1.02
G35U G74A | 1.22
U5C U52C | 1.23
U23C G75C | 1.23
A79U U104C | 2.47
U52C C84G | 0

Variant | self-cleavage
A65C U87C | 0.04
A64U U132A | 0.07
A50U A78G | 0.83
U9C C66U | 0.08
C113U U143C | 1.05
U96A U119A | 0.09
A42U U73G | 0.95
U62A A107G | 0.06
U13C U62G | 0
U26A G33A | 0.67
G88A U102C | 0.06
U9C C145A | 1.3
U12C G41A | 1.26
U26A A138U | 0.78
C18U U85C | 0.12
G70U U130C | 0.08
G127A U143C | 2.07
G72A A124U | 1.22
U13A A30U | 0.7
A107U C113U | 0.69
C68G A121C | 0.03
U15G G144A | 0.82
U39A U109A | 1.45
A64U G80U | 0.47

Variant | self-cleavage
U91A U143G | 0.56
G75A U87G | 0.18
G60A U62A | 0.01
G41A A138G | 1.25
C19U A117G | 1.49
G88U | 0.05
A2G U102C | 1.2
C84G U100C | 0.07
U20C U132C | 1.23
G7U U13A | 0.71
U20C A94G | 0.39
G48A A117G | 1.47
G125C | 1.59
U14A G70A | 0.19
U20A G137U | 0.85
U29A A121G | 1.31
G41U G127A | 0.69
U85G G144A | 0.21
U45C U73C | 1.92
U100C U132C | 1.67
A6U A24G | 1.13
G27A U73C | 0.93
U15C A136U | 1.41
U91A U104C | 0.42

Variant | self-cleavage
U52G A79G | 1.31
G49U U119C | 1.2
U26A U47C | 1
A22G C84U | 0.24
A92U U119A | 0.72
U20G U115C | 1.95
U39C U52A | 1.4
A42G G72U | 1.38
G34U U108C | 1.56
U15C U29C | 1.28
A69U U85A | 0.5
U23C A31G | 0.85
U47C C98U | 0.52
U39A A77U | 1.38
U62A A64C | 0.11
U39A G135U | 1.99
U39G U62C | 0.1
U39G C123A | 0.91
U5C A67G | 0.67
U26A U85C | 0.17
U13C A43G | 0.99
A30G A107U | 1.71
C113U C128U | 1.17
